Test system: Escherichia coli TOP10
Test: shrunken log2 fold change of peptide-encoding DNA abundance (4.5 h post-induction vs induction); higher = less antimicrobial activity (less host growth inhibition)
Conditions: time post-induction: 4.5 h; library: site-saturation at positions 5, 18, 19, 20
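Also: peptides expressed intracellularly from a pBAD plasmid library in pooled LB shake-flask culture, induced with 0.3% L-arabinose, DNA abundance read by NGS, three biological replicates, DESeq2 with apeglm shrinkage.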

## RRIRPRPPRLPRPRPRPWQNPRP
  shrunken log2 fold change: -0.136

## RRIRGRPPRLPRPRPRPMTKPRP
  shrunken log2 fold change: 0.524

## RRIRERPPRLPRPRPRPLVCPRP
  shrunken log2 fold change: 0.00932

## RRIRKRPPRLPRPRPRPPDLPRP
  shrunken log2 fold change: 0.444

## RRIRTRPPRLPRPRPRPHLQPRP
  shrunken log2 fold change: -0.321

## RRIRWRPPRLPRPRPRPWDNPRP
  shrunken log2 fold change: -0.00804

## RRIRQRPPRLPRPRPRPTYNPRP
  shrunken log2 fold change: -0.591

## RRIRRRPPRLPRPRPRPPPTPRP
  shrunken log2 fold change: 1.12

## RRIRSRPPRLPRPRPRPASCPRP
  shrunken log2 fold change: 0.131

## RRIRYRPPRLPRPRPRPWVDPRP
  shrunken log2 fold change: -0.445

## RRIRLRPPRLPRPRPRPLETPRP
  shrunken log2 fold change: -0.0757

## RRIRCRPPRLPRPRPRPRRKPRP
  shrunken log2 fold change: 0.399

## RRIRGRPPRLPRPRPRPGHEPRP
  shrunken log2 fold change: 0.202

## RRIRNRPPRLPRPRPRPTLEPRP
  shrunken log2 fold change: 0.041

## RRIRFRPPRLPRPRPRPLQCPRP
  shrunken log2 fold change: -0.293

## RRIRTRPPRLPRPRPRPGRLPRP
  shrunken log2 fold change: 0.171

## RRIRKRPPRLPRPRPRPSNDPRP
  shrunken log2 fold change: 0.257

## RRIRVRPPRLPRPRPRPTLGPRP
  shrunken log2 fold change: 0.213

## RRIRGRPPRLPRPRPRPSMMPRP
  shrunken log2 fold change: 0.0755

## RRIRFRPPRLPRPRPRPKMFPRP
  shrunken log2 fold change: -0.323

## RRIRDRPPRLPRPRPRPNAVPRP
  shrunken log2 fold change: -0.101

## RRIRYRPPRLPRPRPRPVIQPRP
  shrunken log2 fold change: -0.607

## RRIRHRPPRLPRPRPRPDLGPRP
  shrunken log2 fold change: 0.0527

## RRIRHRPPRLPRPRPRPCKQPRP
  shrunken log2 fold change: -0.0199

## RRIRFRPPRLPRPRPRPHIMPRP
  shrunken log2 fold change: -0.709

## RRIRYRPPRLPRPRPRPYYTPRP
  shrunken log2 fold change: -0.0958

## RRIRIRPPRLPRPRPRPYCEPRP
  shrunken log2 fold change: -0.21

## RRIRPRPPRLPRPRPRPIHNPRP
  shrunken log2 fold change: -0.569

## RRIRARPPRLPRPRPRPEMSPRP
  shrunken log2 fold change: 0.116

## RRIRRRPPRLPRPRPRPHFVPRP
  shrunken log2 fold change: -0.103

## RRIRWRPPRLPRPRPRPFKCPRP
  shrunken log2 fold change: -0.127

## RRIRLRPPRLPRPRPRPIVFPRP
  shrunken log2 fold change: -0.0377

## RRIRSRPPRLPRPRPRPSGSPRP
  shrunken log2 fold change: -0.151

## RRIRERPPRLPRPRPRPCMFPRP
  shrunken log2 fold change: -0.531

## RRIRVRPPRLPRPRPRPCRMPRP
  shrunken log2 fold change: -0.0641

## RRIRLRPPRLPRPRPRPVYVPRP
  shrunken log2 fold change: -0.367

## RRIRPRPPRLPRPRPRPTFRPRP
  shrunken log2 fold change: 0.0885

## RRIRLRPPRLPRPRPRPSIGPRP
  shrunken log2 fold change: -0.378

## RRIRTRPPRLPRPRPRPFTHPRP
  shrunken log2 fold change: -0.174

## RRIRKRPPRLPRPRPRPFVFPRP
  shrunken log2 fold change: 0.277

## RRIRFRPPRLPRPRPRPRESPRP
  shrunken log2 fold change: 0.45

## RRIRCRPPRLPRPRPRPCFSPRP
  shrunken log2 fold change: -0.344

## RRIRVRPPRLPRPRPRPHLNPRP
  shrunken log2 fold change: -0.455

## RRIRERPPRLPRPRPRPHCLPRP
  shrunken log2 fold change: -0.138

## RRIRMRPPRLPRPRPRPLGAPRP
  shrunken log2 fold change: 1.25

## RRIRNRPPRLPRPRPRPASYPRP
  shrunken log2 fold change: -0.148

## RRIRHRPPRLPRPRPRPFPSPRP
  shrunken log2 fold change: 0.0517

## RRIRARPPRLPRPRPRPMANPRP
  shrunken log2 fold change: 0.285

## RRIRGRPPRLPRPRPRPWLWPRP
  shrunken log2 fold change: 0.0131

## RRIRRRPPRLPRPRPRPGDYPRP
  shrunken log2 fold change: -0.045

## RRIRPRPPRLPRPRPRPCNKPRP
  shrunken log2 fold change: -0.102

## RRIRHRPPRLPRPRPRPRFWPRP
  shrunken log2 fold change: 0.112

## RRIRFRPPRLPRPRPRPNVFPRP
  shrunken log2 fold change: -0.108

## RRIRDRPPRLPRPRPRPFCSPRP
  shrunken log2 fold change: 0.217

## RRIRSRPPRLPRPRPRPEAGPRP
  shrunken log2 fold change: 1.34

## RRIRCRPPRLPRPRPRPDEEPRP
  shrunken log2 fold change: 0.123

## RRIRHRPPRLPRPRPRPVAHPRP
  shrunken log2 fold change: -0.00816

## RRIRIRPPRLPRPRPRPAVDPRP
  shrunken log2 fold change: -0.0902

## RRIRVRPPRLPRPRPRPFAYPRP
  shrunken log2 fold change: -0.528

## RRIRDRPPRLPRPRPRPCLTPRP
  shrunken log2 fold change: 0.0157

## RRIRARPPRLPRPRPRPHCGPRP
  shrunken log2 fold change: 0.507

## RRIRPRPPRLPRPRPRPGVFPRP
  shrunken log2 fold change: 0.144

## RRIRDRPPRLPRPRPRPWCCPRP
  shrunken log2 fold change: 0.0175

## RRIRERPPRLPRPRPRPHKVPRP
  shrunken log2 fold change: -0.361

## RRIRRRPPRLPRPRPRPHPGPRP
  shrunken log2 fold change: 0.316

## RRIRSRPPRLPRPRPRPMGQPRP
  shrunken log2 fold change: 0.0126

## RRIRTRPPRLPRPRPRPVINPRP
  shrunken log2 fold change: -0.189

## RRIRHRPPRLPRPRPRPRVIPRP
  shrunken log2 fold change: -0.12

## RRIRPRPPRLPRPRPRPYSMPRP
  shrunken log2 fold change: -1.43

## RRIRCRPPRLPRPRPRPFEMPRP
  shrunken log2 fold change: -0.36

## RRIRHRPPRLPRPRPRPQPDPRP
  shrunken log2 fold change: -0.0791

## RRIRARPPRLPRPRPRPQPLPRP
  shrunken log2 fold change: 0.209

## RRIRTRPPRLPRPRPRPRWDPRP
  shrunken log2 fold change: 0.0818

## RRIRLRPPRLPRPRPRPKMKPRP
  shrunken log2 fold change: -0.476

## RRIRERPPRLPRPRPRPPQVPRP
  shrunken log2 fold change: 0.207

## RRIRTRPPRLPRPRPRPNHLPRP
  shrunken log2 fold change: -0.15

## RRIRERPPRLPRPRPRPHCKPRP
  shrunken log2 fold change: -1.07

## RRIRLRPPRLPRPRPRPGADPRP
  shrunken log2 fold change: 0.28

## RRIRPRPPRLPRPRPRPSSLPRP
  shrunken log2 fold change: 0.0404

## RRIRRRPPRLPRPRPRPWRFPRP
  shrunken log2 fold change: 0.012

## RRIRHRPPRLPRPRPRPDDIPRP
  shrunken log2 fold change: -0.0131

## RRIRRRPPRLPRPRPRPVVWPRP
  shrunken log2 fold change: 0.643

## RRIRRRPPRLPRPRPRPGQKPRP
  shrunken log2 fold change: -0.0196

## RRIRTRPPRLPRPRPRPHHSPRP
  shrunken log2 fold change: -0.133

## RRIRMRPPRLPRPRPRPFMNPRP
  shrunken log2 fold change: -0.196

## RRIRFRPPRLPRPRPRPLDSPRP
  shrunken log2 fold change: -0.0455

## RRIRFRPPRLPRPRPRPDSDPRP
  shrunken log2 fold change: -0.0137

## RRIRMRPPRLPRPRPRPIFRPRP
  shrunken log2 fold change: 0.185

## RRIRKRPPRLPRPRPRPIFSPRP
  shrunken log2 fold change: -0.143

## RRIRMRPPRLPRPRPRPWIYPRP
  shrunken log2 fold change: -0.169

## RRIRWRPPRLPRPRPRPDVVPRP
  shrunken log2 fold change: 0.0719

## RRIRQRPPRLPRPRPRPKGYPRP
  shrunken log2 fold change: -0.00146

## RRIRIRPPRLPRPRPRPARDPRP
  shrunken log2 fold change: -0.169

## RRIRFRPPRLPRPRPRPPSTPRP
  shrunken log2 fold change: 0.342

## RRIRPRPPRLPRPRPRPIQFPRP
  shrunken log2 fold change: -0.145

## RRIRARPPRLPRPRPRPNDYPRP
  shrunken log2 fold change: -0.471

## RRIRSRPPRLPRPRPRPNLGPRP
  shrunken log2 fold change: -0.0959

## RRIRCRPPRLPRPRPRPRKVPRP
  shrunken log2 fold change: 0.196

## RRIRYRPPRLPRPRPRPEMMPRP
  shrunken log2 fold change: -0.0745

## RRIRVRPPRLPRPRPRPMTVPRP
  shrunken log2 fold change: 0.116

## RRIRCRPPRLPRPRPRPKRSPRP
  shrunken log2 fold change: 0.235

## RRIRSRPPRLPRPRPRPGGGPRP
  shrunken log2 fold change: 0.908

## RRIRARPPRLPRPRPRPISWPRP
  shrunken log2 fold change: 0.508

## RRIRNRPPRLPRPRPRPDSGPRP
  shrunken log2 fold change: -0.166

## RRIRTRPPRLPRPRPRPYCVPRP
  shrunken log2 fold change: -0.142

## RRIRRRPPRLPRPRPRPYSTPRP
  shrunken log2 fold change: -0.295

## RRIRVRPPRLPRPRPRPVEEPRP
  shrunken log2 fold change: -0.143

## RRIRWRPPRLPRPRPRPAYFPRP
  shrunken log2 fold change: 0.125

## RRIRERPPRLPRPRPRPAEVPRP
  shrunken log2 fold change: -0.0184

## RRIRHRPPRLPRPRPRPCWFPRP
  shrunken log2 fold change: -0.499

## RRIRHRPPRLPRPRPRPHHPPRP
  shrunken log2 fold change: 0.0301

## RRIRGRPPRLPRPRPRPCAYPRP
  shrunken log2 fold change: 0.0946

## RRIRDRPPRLPRPRPRPMHCPRP
  shrunken log2 fold change: -0.00112

## RRIRDRPPRLPRPRPRPESGPRP
  shrunken log2 fold change: 0.778

## RRIRIRPPRLPRPRPRPECCPRP
  shrunken log2 fold change: 0.0559

## RRIRDRPPRLPRPRPRPFRIPRP
  shrunken log2 fold change: 0.0432

## RRIRRRPPRLPRPRPRPDSYPRP
  shrunken log2 fold change: -0.117

## RRIRSRPPRLPRPRPRPDVYPRP
  shrunken log2 fold change: -0.0361

## RRIRNRPPRLPRPRPRPCKNPRP
  shrunken log2 fold change: -0.0376

## RRIRQRPPRLPRPRPRPCFIPRP
  shrunken log2 fold change: -0.353

## RRIRDRPPRLPRPRPRPCRCPRP
  shrunken log2 fold change: 0.0101

## RRIRQRPPRLPRPRPRPMPYPRP
  shrunken log2 fold change: -0.0574

## RRIRRRPPRLPRPRPRPGLLPRP
  shrunken log2 fold change: 0.0882

## RRIRDRPPRLPRPRPRPVNEPRP
  shrunken log2 fold change: 0.0314

## RRIRYRPPRLPRPRPRPQHFPRP
  shrunken log2 fold change: -0.0787

Source: the supplement of paper PMC9112550, “Optimization of the antimicrobial peptide Bac7 by deep mutational scanning” (BMC Biology, 2022)
